Reference: patent US20130029913A1, “ARTIFICIAL PLATELETS” (priority 2005, published 2013)
Primed or numbered codes have the meaning given here. No end group written: not given here. MAL″ = maleimide moiety on the C-terminal lysine; MAL = maleimide moiety

Experiments:
[1] = target: T1, Fibrinogen (Homo sapiens, UniProt P02679); assay: Binding of fibrinogen to peptide-linked microspheres in absence and presence of thrombin (flow cytometry)
Experimental: Peptide A linked microspheres, and Peptide B linked microspheres were prepared as described in Example 2, and were mixed for 30 minutes with buffer or thrombin as shown in the table below:
The microspheres were then recovered by centrifuging at 1800 g for 10 minutes. The microspheres were resuspended in 100 μl Tris to give a final concentration of 5 mg/ml. 10 μl of Hirudin 100 U/ml was added to inhibit residual thrombin.
180 μl Fibrinogen at a concentration 0.1 mg/ml was added to 20 μl of Peptide A or Peptide B linked microspheres and mixed for 1 hr.
Fibrinogen binding was measured as follows. 5 μl microspheres were added to 50 μl HEPES buffer pH […] FITC labelled antibody to human fibrinogen was added and mixed for 20 minutes. The reaction was stopped with addition of 0.2% Formyl saline. Bound fluorescence was measured using a Beckman Coulter XL MCL Flow Cytometer.

[2] = target: T1, Fibrinogen; assay: Clot formation in fibrinogen in response to thrombin (turbidity, PAP-4); assay type: biochemical; parameters: purchased SNBTS
Experimental: Clot formation was determined by a […] in turbidity using the Platelet Aggregation Profiler® PAP-4 (BioData Corporation, PA) as follows; Peptide C linked microparticles were prepared as described in Example 5 at a stock concentration of 2.5 mg/ml in Hepes buffered saline (HBS). The baseline optical density was set with fibrinogen (SNBTS) solution at 3 mg/ml in HBS. Fibrinogen solutions (205 μl) were pre-warmed to 37° C. for 1 min before the addition of microparticles (25 μl), with the stir bar rate set at 900 rpm. After two min 20 μL of human thrombin (Sigma) stock solution was added to give a final concentration of 0.032 U/ml.

[3] = system: plasma; assay: Clot formation in plasma in response to thrombin (turbidimetric, PAP-4); assay type: biochemical
Experimental: Microparticle clot formation in plasma was determined turbidimetrically using the Platelet Aggregation Profiler® PAP-4 (BioData Corporation, PA) as described above.
(§1) Peptide C modified microparticles were prepared as described in Example 5 at a stock concentration of 2.5 mg/ml in HBS. The baseline optical density was set with plasma, which had been prepared from citrated blood. Plasma samples (205 μl) were pre-warmed to 37° C. for 1 min before the addition of microparticles (25 μl), with the stir bar rate set at 900 rpm. After two minutes 20 uL of human thrombin (Sigma) stock solution was added to the reaction to give a final thrombin concentration of 0.25 U/ml.

[4] = target: T1, Fibrinogen; assay: Fibrinogen binding to microparticles after incubation with or without thrombin (flow cytometry); parameters: purchased Scottish National Blood Transfusion Service (SNBTS)
Experimental: (§2) Microparticles were mixed with fibrinogen solution after exposure to thrombin to confirm that fibrinogen-binding sequence is exposed by thrombin.
(§3) Microparticles at 0.7, 5 or 10 mg/ml were incubated with 0-0.64 U/mL thrombin at 37° C. after 2 min the thrombin was inhibited by the addition of hirudin (Sigma) at a final concentration of 10 U/mL. Microparticles were centrifuged at 9300 g for 5 min and resuspended in HBS to give 14 mg/mL. The microparticles were diluted 10-fold in 0.1 mg/mL human fibrinogen (Scottish National Blood Transfusion Service: SNBTS) and incubated at room temperature for 1 h. The amount of fibrinogen bound was determined by flow cytometry with a polyclonal antibody rabbit-anti-human fibrinogen-FITC (Dako Cytomation).

[5] = system: plasma; assay: Clot formation in plasma after microparticles pre-incubated with thrombin (turbidimetric, PAP-4); assay type: biochemical
Experimental: Clot formation as monitored in plasma with peptide C modified microparticles that had been pre-exposed to thrombin in a buffer. Microparticle clot formation in plasma was determined turbidimetrically using the Platelet Aggregation Profiler® PAP-4 (BioData Corporation, PA) as described above.
as §1, with “HBS. Peptide C modified microparticles were pre-incubated with 0.6 U/ml thrombin for 1 h and then hirudin (10 U/ml) was added to inhibit thrombin activity. The reactions were centrifuged at 9300 g for 5 min then resuspended in HBS at 2.5 mg/ml.” for “HBS.”, “of” for “of human”, “thrombin” for “thrombin (Sigma)”

[6] = system: Thrombocytopenic blood; assay: Platelet aggregation in thrombocytopenic blood activated by ADP (impedance aggregometer); assay type: cell-based; settings: microparticles pre-exposed to thrombin, 6 min
Experimental: Platelet aggregation in the presence of peptide C modified microparticles was measured using a Multiplatelet impedance aggregometer (Multiplate® Dynabyte medical, Munich).
Peptide C modified microparticles were prepared as described in Example 5 at a stock concentration of 2.5 mg/ml in HBS. The microparticles (0.75 mg) were pre-incubated for 1 h with 1 U/ml human thrombin (Sigma) in HBS (total volume 0.3 ml). To inhibit thrombin activity hirudin (Sigma) was added at a final concentration of 5 U/ml. The reaction was centrifuged at 9300 g for 5 min and the supernatant was discarded. The microparticles were resuspended in HBS to a concentration of 2.5 mg/ml.
Thrombocytopenic blood was prepared from citrated blood as follows:
Platelets were removed by centrifuging whole blood at 163 g for 20 min and discarding the platelet rich upper layer. The upper platelet rich layer was replaced by plasma that was isolated as the supernatant after centrifuging whole blood at 1800 g for 30 min.
To monitor electrical impedance; to each electrode well 0.3 ml of blood was incubated at 37° C. with microparticles (0.15 mg) and saline to give a total volume of 0.6 ml. Aggregation was recorded immediately after the addition of 30 μl of activator adenosine diphosphate solution (0.1 mM). Aggregation was recorded for 6 min; results in FIG. 9 are expressed in arbitrary units of final aggregation.

[7] = target: T2, human fibrinogen (Scottish National Blood Transfusion Service: SNBTS) (human, UniProt P02671 20-629; P02675 31-491; P02679 27-437, limits assumed); assay: flow cytometry with rabbit anti-human fibrinogen-FITC on microparticles
T2 sequence (looked up) 1: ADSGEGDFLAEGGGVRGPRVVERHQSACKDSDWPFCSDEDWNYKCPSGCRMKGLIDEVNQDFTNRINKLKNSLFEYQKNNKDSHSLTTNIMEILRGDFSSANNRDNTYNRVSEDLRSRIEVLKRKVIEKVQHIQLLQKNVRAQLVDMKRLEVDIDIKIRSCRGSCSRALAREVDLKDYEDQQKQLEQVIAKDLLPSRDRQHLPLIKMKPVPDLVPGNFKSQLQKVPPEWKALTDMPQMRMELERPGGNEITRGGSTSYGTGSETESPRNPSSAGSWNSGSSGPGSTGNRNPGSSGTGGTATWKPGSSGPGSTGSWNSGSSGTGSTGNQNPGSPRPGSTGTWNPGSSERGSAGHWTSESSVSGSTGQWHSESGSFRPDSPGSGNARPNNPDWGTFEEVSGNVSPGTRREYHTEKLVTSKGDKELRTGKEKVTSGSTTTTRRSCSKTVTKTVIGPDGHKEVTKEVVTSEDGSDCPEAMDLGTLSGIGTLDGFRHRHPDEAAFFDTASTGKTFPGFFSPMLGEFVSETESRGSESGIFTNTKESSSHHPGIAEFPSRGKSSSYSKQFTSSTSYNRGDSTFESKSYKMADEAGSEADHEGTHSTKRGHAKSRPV
T2 sequence (looked up) 2: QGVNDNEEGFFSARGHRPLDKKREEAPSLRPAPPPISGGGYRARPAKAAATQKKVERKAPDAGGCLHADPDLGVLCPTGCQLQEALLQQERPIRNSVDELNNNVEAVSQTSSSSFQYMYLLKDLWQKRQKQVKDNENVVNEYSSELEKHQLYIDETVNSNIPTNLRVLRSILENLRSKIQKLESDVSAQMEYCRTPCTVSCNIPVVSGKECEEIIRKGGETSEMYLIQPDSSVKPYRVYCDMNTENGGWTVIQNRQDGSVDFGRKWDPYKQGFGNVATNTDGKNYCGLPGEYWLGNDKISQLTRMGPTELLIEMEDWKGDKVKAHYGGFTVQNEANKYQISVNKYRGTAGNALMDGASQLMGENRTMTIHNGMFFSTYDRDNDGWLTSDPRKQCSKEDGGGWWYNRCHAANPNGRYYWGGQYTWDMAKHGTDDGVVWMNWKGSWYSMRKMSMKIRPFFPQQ
T2 sequence (looked up) 3: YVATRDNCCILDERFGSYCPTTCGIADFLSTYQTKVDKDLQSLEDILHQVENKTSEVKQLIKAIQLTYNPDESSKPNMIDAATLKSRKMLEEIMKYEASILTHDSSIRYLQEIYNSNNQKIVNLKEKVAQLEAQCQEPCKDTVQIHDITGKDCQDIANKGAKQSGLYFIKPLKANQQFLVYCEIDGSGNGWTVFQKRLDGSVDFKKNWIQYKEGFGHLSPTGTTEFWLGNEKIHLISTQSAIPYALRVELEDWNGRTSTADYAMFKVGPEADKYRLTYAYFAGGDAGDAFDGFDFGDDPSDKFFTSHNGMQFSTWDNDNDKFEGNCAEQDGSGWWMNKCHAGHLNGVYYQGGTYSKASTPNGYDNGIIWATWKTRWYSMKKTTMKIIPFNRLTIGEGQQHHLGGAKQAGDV
Experimental: as §2, §3

T1 sequence (P02671 20-644 isoform P02671-2 partner limits assumed, one chain of several): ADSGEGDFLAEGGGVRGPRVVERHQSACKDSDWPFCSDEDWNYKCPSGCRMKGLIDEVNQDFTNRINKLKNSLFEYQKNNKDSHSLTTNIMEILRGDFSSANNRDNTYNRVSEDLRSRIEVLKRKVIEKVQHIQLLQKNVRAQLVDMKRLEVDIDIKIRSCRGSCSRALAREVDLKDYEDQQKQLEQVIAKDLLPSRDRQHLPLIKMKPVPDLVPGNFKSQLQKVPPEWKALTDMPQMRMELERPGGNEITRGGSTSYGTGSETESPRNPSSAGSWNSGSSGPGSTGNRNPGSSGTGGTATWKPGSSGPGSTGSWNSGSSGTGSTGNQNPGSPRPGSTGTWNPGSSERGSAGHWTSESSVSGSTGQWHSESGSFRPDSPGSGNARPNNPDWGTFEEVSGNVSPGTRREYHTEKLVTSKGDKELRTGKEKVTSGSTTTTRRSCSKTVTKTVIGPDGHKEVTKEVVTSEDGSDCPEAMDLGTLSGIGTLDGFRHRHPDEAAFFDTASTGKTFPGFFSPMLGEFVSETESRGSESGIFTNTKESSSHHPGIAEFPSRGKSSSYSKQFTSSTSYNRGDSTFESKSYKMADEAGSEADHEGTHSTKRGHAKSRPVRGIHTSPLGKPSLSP

## H2N-GPRPG^6C (H-GPRPGGGGGGC; also: cross-linked to human albumin microspheres) [Peptide B, reference compound]
[1]; absence of thrombin
  fibrinogen binding (in words): bound fibrinogen
[1]; presence of thrombin
  fibrinogen binding (in words): bound fibrinogen

## H2N-LVPRGPRPG^5K-MAL (H-LVPRGPRPGGGGGK-{MAL}; also: MAL maleimide linked to human albumin microparticles) [peptide C]
[2]; absence of thrombin, fibrinogen 3 mg/ml
  clot formation in fibrinogen solution: neither blank nor microparticles modified with peptide C formed a clot
[2]; thrombin 0.032 U/ml added at 2 min
  turbidity decrease (clot formation) vs control unmodified microparticles: decreased more rapidly
[3]; thrombin 0.25 U/ml added at the 2 min time point
  clot formation in plasma vs unmodified control blank microparticles: accelerated clot formation
[3]; without the addition of thrombin
  clot formation in plasma: did not form a clot
[4]; increasing thrombin concentration (0-0.64 U/mL), all three microparticle concentrations
  amount of fibrinogen bound to microparticles: increased
[4]; without thrombin, microparticles 0.7, 5 or 10 mg/ml
  fibrinogen binding (in words): do not bind fibrinogen
[5]; exposed to thrombin both before (0.6 U/ml, 1 h) and during (0.25 U/ml) incubation with plasma
  clot formation in plasma: clot formation occurs
[5]; without thrombin exposure, over the 20 min period
  clot formation in plasma: did not result in clot formation
[6]
  electrical impedance (final aggregation) vs TCB without microparticles or blank microparticles: greater electrical impedance

## H2N-LVPRGPRPG^6C (H-LVPRGPRPGGGGGGC; also: cross-linked to human albumin microspheres) [Peptide A]
[1]; first incubated with thrombin (0.16 U/ml, 30 minutes), then mixed with fibrinogen
  microspheres that bound fibrinogen: 86%
[1]; not previously incubated with thrombin, fibrinogen 0.1 mg/ml, 1 hr
  microspheres that bound fibrinogen: 6%

B1: Peptide C (H2N-LVPRGPRPG5K-MAL), fibrinogen binding precursor peptide linked to human albumin microparticles, not exposed to thrombin (peptide)
peptide: H-LVPRGPRPGGGGGK(MAL″)
modifications: also: thioether-linked via maleimide to albumin microparticle sulphydryl
notes: Synthetic peptide immobilised on microparticles of human serum albumin; tested as the intact precursor; also called peptide C modified microparticles; microparticles modified with peptide C
[7]
  binding result: no binding (tested: 0.1 mg/mL human fibrinogen)
